Test results: patent US5882914, “Nucleic acids encoding the hypoxia inducible factor-1” (The Johns Hopkins University School of Medicine)

Experiments:
[1] = target: T1, HIF-1 (HIF-1alpha/HIF-1beta ARNT heterodimer) (Homo sapiens, UniProt Q16665;P27540 Q16665:1-826,P27540:2-789); test: EMSA; similar to W18; competed by W18 not M18; conditions: tags: none; 5' GATC overhang added
Experimental: (§1) The sense strand sequence of the W18 and M18 oligonucleotides was as given above. HIF-1 was partially purified from 50 liters of CoCl_2-treated HeLa cells by crude nuclear extract preparation, DEAE-Sepharose chromatography, MonoQ fast protein liquid chromatography, and DNA affinity chromatography. Incubations with crude nuclear extracts and partially purified HIF-I contained 100 and 1 ng of denatured calf thymus DNA, respectively. Competition experiments were performed with 5 ng of unlabeled W18 or MI8 oligonucleotide.
EMSA was also performed with a preparation of HIF-1 from CoCl_2-treated HeLa cells that was purified approximately 600-fold by DEAE-cellulose, MonoQ, and DNA affinity chromatography. Each probe bound HIF-1 in a manner that was qualitatively and quantitatively similar to the complex formed with W18. The binding of HIF-1 to these probes was sequence-specific as it could be competed by an excess of unlabeled W18 but not by mutant oligonucleotide M18, containing a 3-nucleotide substitution previously shown to eliminate HIF-1 binding and hypoxia-inducible enhancer function. Similar results were obtained when competition experiments involving W18 and M18 were performed with crude nuclear extract from hypoxic Hep3B cells. […] Given the biased method of ascertainment, it is possible that HIF-1 may recognize other sequences not represented by this consensus. In addition to the 6 HIF-1 sites from glycolytic genes, the sequence 5'-CACGTGCT-3' (SEQ ID NO:34) was also present in the hENO1 5'-FS at -786 to -793 (Gialongo et al. (1990) Eur. J. Biochem. 190:567–573) but was not tested for HIF-1 binding. Thus, a total of 7 probable HIF-1 sites were identified in 20.7 kb of nucleotide sequence reported to GenBank for these 5 glycolytic genes. In contrast, no sequences matching the consensus HIF-1 site were identified on either DNA strand within a total of 43.5 kb, comprising the nucleotide sequences of 5 randomly chosen genes, AFP, BUP4, CREB, DHFR, and EPOR (Gibbs et al. (1987) Biochemistry 26;1332–1343; Kurihara et al. (1993) Biochem.

[2] = target: T1, HIF-1 (HIF-1alpha/HIF-1beta ARNT …); test: competition; 250-fold excess M18 does not compete; HIF-1 in M18 column flowthrough; conditions: tags: none; 5' GATC overhang
Experimental: (§2) Figure 3A: FIG. 3A is an autoradiograph showing gel shift assay analysis of column fractions for HIF-1 DNA binding activity. Nuclear extracts were fractionated by DEAE-Sepharose chromatography, and fractions containing HIF-1 activity were applied to a W18 DNA affinity column. 5 ug of protein were incubated with 0.1 ug of calf thymus DNA for gel shift analysis of crude nuclear extract (Crude NE, lane 1) and HIF-1 active fractions from DEAE-Sepharose columns (DEAE, lane 2). For fractions from the W18 column (lanes 3–13), 1 ul aliquots were incubated with 5 ng of calf thymus DNA. The positions of the two HIF-1 bands, constitutive activity (C), nonspecific activity (NS), and free probe (F) are indicated. FT, flowthrough, 0.25M, 0.5M, 1M, and 2M are fractions eluted with indicated concentration of KCl in buffer Z. Figure 3B: FIG. 3B is an autoradiograph showing sequence-specific DNA binding of the partially purified fractions described in the legend to FIG. 3A. 5 ug aliquots of fractions from the DEAE-Sepharose column were incubated with W18 probe in the presence of no competitor (lane 1), 10-fold (lanes 2 and 5), 50-fold (lanes 3 and 6), or 250-fold (lanes 4 and 7) molar excess of unlabeled W18 (W, lanes 2–4) or M18 (M, lanes 5–7) oligonucleotide.

[3] = target: T1, HIF-1 (HIF-1alpha/HIF-1beta ARNT …); test: EMSA; similar to W18; competed by W18 not M18; printed CADGTGCG in table; conditions: tags: none; 5' GATC overhang added
Text: as §1, with “Double-stranded oligonucleotides were synthesized according to the sequences shown in Table 2 except that each oligonucleotide contained at its 5'-end the sequence 5'-GATC-3', which formed a single-stranded 5' overhang when complementary oligonucleotides were annealed. The” for “The”
(§3) EMSA was also performed with a preparation of HIF-1 from CoCl_2-treated HeLa cells that was purified approximately 600-fold by DEAE-cellulose, MonoQ, and DNA affinity chromatography. Each probe bound HIF-1 in a manner that was qualitatively and quantitatively similar to the complex formed with W18. The binding of HIF-1 to these probes was sequence-specific as it could be competed by an excess of unlabeled W18 but not by mutant oligonucleotide M18, containing a 3-nucleotide substitution previously shown to eliminate HIF-1 binding and hypoxia-inducible enhancer function. […]

[4] = target: T1, HIF-1 (HIF-1alpha/HIF-1beta ARNT …); test: EMSA; listed among 8 oligonucleotides shown to bind HIF-1 specifically; conditions: tags: none; 5' GATC overhang added
Text: as §1, with “Double-stranded oligonucleotides were synthesized according to the sequences shown in Table 2 except that each oligonucleotide contained at its 5'-end the sequence 5'-GATC-3', which formed a single-stranded 5' overhang when complementary oligonucleotides were annealed. The” for “The”
as §3

[5] = target: T1, HIF-1 (HIF-1alpha/HIF-1beta ARNT …); test: EMSA; buffer Z-100; also UV cross-linking of both subunits, competed by W18 not M18; conditions: tags: none; 5' GATC overhang
Experimental: as §2
UV Cross-Linking Analysis. […]

T1 sequence (Q16665 whole entry, chain 1 of 2): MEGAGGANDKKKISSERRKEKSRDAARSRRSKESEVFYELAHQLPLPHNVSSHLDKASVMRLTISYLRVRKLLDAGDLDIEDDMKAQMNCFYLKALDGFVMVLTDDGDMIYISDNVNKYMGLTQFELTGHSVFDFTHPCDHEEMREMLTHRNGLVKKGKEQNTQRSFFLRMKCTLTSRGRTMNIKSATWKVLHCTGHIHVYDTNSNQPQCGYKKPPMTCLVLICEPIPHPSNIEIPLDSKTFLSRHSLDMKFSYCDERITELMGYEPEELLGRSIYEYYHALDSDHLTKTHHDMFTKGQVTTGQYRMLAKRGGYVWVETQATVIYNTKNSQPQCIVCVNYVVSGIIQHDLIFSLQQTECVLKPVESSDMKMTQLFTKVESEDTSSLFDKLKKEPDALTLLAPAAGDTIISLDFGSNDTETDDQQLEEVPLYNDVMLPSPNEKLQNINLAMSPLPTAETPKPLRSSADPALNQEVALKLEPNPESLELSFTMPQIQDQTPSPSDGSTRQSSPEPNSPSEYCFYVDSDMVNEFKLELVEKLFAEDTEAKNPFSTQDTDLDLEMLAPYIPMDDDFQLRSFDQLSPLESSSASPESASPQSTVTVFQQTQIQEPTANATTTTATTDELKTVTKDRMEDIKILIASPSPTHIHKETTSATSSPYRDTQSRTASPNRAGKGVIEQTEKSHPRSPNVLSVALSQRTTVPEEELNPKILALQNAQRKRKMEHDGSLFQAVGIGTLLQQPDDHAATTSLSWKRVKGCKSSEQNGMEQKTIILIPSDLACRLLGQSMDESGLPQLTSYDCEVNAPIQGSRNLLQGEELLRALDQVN
T1 sequence (P27540 2-789, chain 2 of 2): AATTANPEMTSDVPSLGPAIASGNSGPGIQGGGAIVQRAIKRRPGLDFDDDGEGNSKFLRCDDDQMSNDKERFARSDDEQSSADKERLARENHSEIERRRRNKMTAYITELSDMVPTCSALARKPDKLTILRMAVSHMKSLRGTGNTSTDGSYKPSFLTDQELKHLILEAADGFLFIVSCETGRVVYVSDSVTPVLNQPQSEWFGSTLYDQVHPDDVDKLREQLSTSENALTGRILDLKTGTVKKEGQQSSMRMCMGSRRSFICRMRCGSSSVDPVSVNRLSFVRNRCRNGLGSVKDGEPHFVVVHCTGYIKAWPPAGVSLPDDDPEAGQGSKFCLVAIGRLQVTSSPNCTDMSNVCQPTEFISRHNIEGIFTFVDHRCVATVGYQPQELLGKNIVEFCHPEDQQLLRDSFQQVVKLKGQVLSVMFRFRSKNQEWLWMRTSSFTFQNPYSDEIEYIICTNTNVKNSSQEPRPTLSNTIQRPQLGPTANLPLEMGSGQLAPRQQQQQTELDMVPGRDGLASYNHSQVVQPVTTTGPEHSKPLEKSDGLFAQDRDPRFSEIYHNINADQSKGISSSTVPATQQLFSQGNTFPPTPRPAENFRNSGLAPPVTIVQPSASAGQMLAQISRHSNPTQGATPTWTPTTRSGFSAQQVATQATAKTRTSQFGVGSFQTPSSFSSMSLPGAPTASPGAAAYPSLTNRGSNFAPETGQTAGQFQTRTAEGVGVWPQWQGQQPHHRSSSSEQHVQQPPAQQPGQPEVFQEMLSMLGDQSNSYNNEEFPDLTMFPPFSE

Row | Binder | binding result [1] | further results
1 | hALDA IVS-4 (dsDNA) DNA 1: CTTCACGTGCGGGGACCAGGGACCGT DNA 2: ACGGTCCCTGGTCCCCGCACGTGAAG | binds | –
2 | M18 (dsDNA) DNA 1: GATCGCCCTAAAAGCTGTCTCA DNA 2: TGAGACAGCTTTTAGGGCGATC | – | binding result [2]: no binding
3 | mLDHA 5'-FS (dsDNA) DNA 1: GTGGGAGCCCAGCGGACGTGCGGGAA DNA 2: TTCCCGCACGTCCGCTGGGCTCCCAC | binds | –
4 | hPGK1 5'-UT (dsDNA) DNA 1: CTGCCGACGTGCGCTCCGGAG DNA 2: CTCCGGAGCGCACGTCGGCAG | binds | –
5 | mPFKL IVS-1 (dsDNA) DNA 1: CCGGGTAGCTGGCGTACGTGCTGCAG DNA 2: CTGCAGCACGTACGCCAGCTACCCGG | binds | –
6 | hENO1 5'-FS (dsDNA) DNA 1: GGCCACGTGCGCCGCCTGCGCCTGCG DNA 2: CGCAGGCGCAGGCGGCGCACGTGGCC | – | binding result [3]: binds
7 | hEPO 3'-FS (dsDNA) DNA 1: GCCCTACGTGCTGTCTCACACAGCCTGTCTGA DNA 2: TCAGACAGGCTGTGTGAGACAGCACGTAGGGC | – | binding result [4]: binds
8 | hPGK1 5'-FS (dsDNA) DNA 1: GTGAGACGTGCGGCTTCCGTTTG DNA 2: CAAACGGAAGCCGCACGTCTCAC | binds | –
9 | hEPO 5'-FS (dsDNA) DNA 1: GGGGCTGCTGCAGACGTGCGTGTG DNA 2: CACACGCACGTCTGCAGCAGCCCC | binds | –
10 | W18 (dsDNA) DNA 1: GATCGCCCTACGTGCTGTCTCA DNA 2: TGAGACAGCACGTAGGGCGATC | – | binding result [5]: binds
